Data published in IntAct's records for PubMed 16698797.

B1: Protein O-mannosyl-transferase 1 (Homo sapiens), Q9Y6A1 (parent)
chain: MWGFLKRPVVVTADINLSLVALTGMGLLSRLWRLTYPRAVVFDEVYYGQYISFYMKQIFFLDDSGPPFGHMVLALGGYLGGFDGNFLWNRIGAEYSSNVPVWSLRLLPALAGALSVPMAYQIVLELHFSHCAAMGAALLMLIENALITQSRLMLLESVLIFFNLLAVLSYLKFFNCQKHSPFSLSWWFWLTLTGVACSCAVGIKYMGVFTYVLVLGVAAVHAWHLLGDQTLSNVGADVQCCMRPACMGQMQMSQGVCVFCHLLARAVALLVIPVVLYLLFFYVHLILVFRSGPHDQIMSSAFQASLEGGLARITQGQPLEVAFGSQVTLRNVFGKPVPCWLHSHQDTYPMIYENGRGSSHQQQVTCYPFKDVNNWWIVKDPRRHQLVVSSPPRPVRHGDMVQLVHGMTTRSLNTHDVAAPLSPHSQEVSCYIDYNISMPAQNLWRLEIVNRGSDTDVWKTILSEVRFVHVNTSAVLKLSGAHLPDWGYRQLEIVGEKLSRGYHGSTVWNVEEHRYGASQEQRERERELHSPAQVDVSRNLSFMARFSELQWRMLALRSDDSEHKYSSSPLEWVTLDTNIAYWLHPRTSAQIHLLGNIVIWVSGSLALAIYALLSLWYLLRRRRNVHDLPQDAWLRWVLAGALCAGGWAVNYLPFFLMEKTLFLYHYLPALTFQILLLPVVLQHISDHLCRSQLQRSIFSALVVAWYSSACHVSNTLRPLTYGDKSLSPHELKALRWKDSWDILIRKH
partner: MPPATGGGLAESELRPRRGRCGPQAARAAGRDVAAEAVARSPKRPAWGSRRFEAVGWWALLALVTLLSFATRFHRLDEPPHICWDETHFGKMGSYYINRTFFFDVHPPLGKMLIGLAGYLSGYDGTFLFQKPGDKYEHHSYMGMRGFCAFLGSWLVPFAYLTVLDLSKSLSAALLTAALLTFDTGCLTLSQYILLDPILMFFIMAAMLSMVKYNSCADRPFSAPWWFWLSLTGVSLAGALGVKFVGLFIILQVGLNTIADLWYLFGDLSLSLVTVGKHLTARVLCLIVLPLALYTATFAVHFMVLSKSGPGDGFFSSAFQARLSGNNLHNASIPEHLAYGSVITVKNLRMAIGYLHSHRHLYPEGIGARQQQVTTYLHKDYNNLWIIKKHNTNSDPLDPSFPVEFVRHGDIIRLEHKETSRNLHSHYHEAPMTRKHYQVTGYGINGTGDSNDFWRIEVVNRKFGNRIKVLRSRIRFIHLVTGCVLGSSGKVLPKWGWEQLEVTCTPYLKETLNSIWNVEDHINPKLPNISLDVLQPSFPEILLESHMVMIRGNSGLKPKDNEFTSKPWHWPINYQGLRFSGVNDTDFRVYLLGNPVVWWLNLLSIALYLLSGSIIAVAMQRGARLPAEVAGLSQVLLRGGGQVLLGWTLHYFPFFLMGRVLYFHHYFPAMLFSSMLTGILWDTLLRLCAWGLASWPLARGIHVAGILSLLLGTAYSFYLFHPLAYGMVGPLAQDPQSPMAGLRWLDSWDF

Variants of: B1
Settings: with pomt2_human POMT2, Q9UKY4

Row | effect of a mutation on the interaction | Variant
1 | with no effect | W582C
2 | with no effect | G76R
3 | with no effect | G65R
4 | with no effect | V428D
5 | with no effect | A200P
